Test results reported in patent US20110136121A1 (TORAY INDUSTRIES, published 2011).

T1: canine CAPRIN-1, endogenous (canine tissue sections; serum of cancer-bearing dogs) (dog, UniProt A0A8I3S8S8 2-717)
T1 construct: Endogenous protein or fragment of it; also called antigen polypeptide contained in specimens (dog)
T1 sequence: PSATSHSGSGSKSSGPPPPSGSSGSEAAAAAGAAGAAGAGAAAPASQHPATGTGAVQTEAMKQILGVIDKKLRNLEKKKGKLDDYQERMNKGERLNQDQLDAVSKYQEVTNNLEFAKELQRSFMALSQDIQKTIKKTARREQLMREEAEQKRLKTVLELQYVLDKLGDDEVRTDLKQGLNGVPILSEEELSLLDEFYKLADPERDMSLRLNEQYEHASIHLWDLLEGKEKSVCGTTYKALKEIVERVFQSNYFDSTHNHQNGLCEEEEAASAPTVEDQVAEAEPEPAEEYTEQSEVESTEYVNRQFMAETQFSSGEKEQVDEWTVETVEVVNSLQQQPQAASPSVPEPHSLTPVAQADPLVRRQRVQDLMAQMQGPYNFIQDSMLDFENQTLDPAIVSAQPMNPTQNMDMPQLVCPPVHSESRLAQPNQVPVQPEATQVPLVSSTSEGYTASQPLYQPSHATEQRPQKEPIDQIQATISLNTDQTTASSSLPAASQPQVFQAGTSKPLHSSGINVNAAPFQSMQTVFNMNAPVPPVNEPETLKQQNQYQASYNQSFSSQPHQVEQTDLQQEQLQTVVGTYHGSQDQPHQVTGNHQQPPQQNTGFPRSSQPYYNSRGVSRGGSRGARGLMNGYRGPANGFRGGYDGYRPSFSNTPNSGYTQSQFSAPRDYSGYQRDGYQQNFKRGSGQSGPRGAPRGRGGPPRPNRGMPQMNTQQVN


Legend:
[1] = target: T1, canine CAPRIN-1, endogenous (canine …); test: sandwich ELISA: polyclonal anti-SEQ ID NO: 43 immobilised, serum of cancer-bearing dogs, monoclonal antibody 1 ug/ml as secondary antibody
Description: With the use of the polyclonal antibody against CAPRIN-1-derived peptide (SEQ ID NO: 43) obtained in Example 3 (1) and each monoclonal antibody against the CAPRIN-1 protein obtained in Example 3 (2) in combination, the antigen polypeptide itself contained in specimens (cancer-bearing living organism-derived serum) reacted positive upon cancer diagnosis using the polypeptide of CAPRIN-1 in Example 4 (1)-(3) was detected by Sandwich ELISA. The polyclonal antibody was used as a primary antibody and each monoclonal antibody was used as a secondary antibody. The serum protein level of the protein specifically reacting with each of the above antibodies was measured.
The primary antibody was immobilized by adding the polyclonal antibody diluted to a concentration of 5 μg/ml with phosphate buffered saline to 96-well immobilizer amino plates (Nunc) at 100 μl/well and then shaking the plates at room temperature for 2 hours. Blocking was performed by adding a 50 mM sodium bicarbonate buffer solution (pH 8.4) (hereinafter, blocking solution) containing 0.5% BSA (bovine serum albumin, Sigma Aldrich Japan) at 100 μl/well and then shaking at room temperature for 1 hour. Subsequently, a cancer-bearing living organism-derived serum diluted using the blocking solution was added at 100 μl/well and then the resultants were shaken at room temperature for 3 hours for reaction. The dilution rate at this time was adjusted with 10-fold (10-1000-fold) dilution series. After 3 instances of washing with phosphate buffered saline (hereinafter, PBS-T) containing 0.05% Tween20 (Wako Pure Chemical Industries, Ltd.), each monoclonal antibody as a secondary antibody diluted to a concentration of 1 μg/ml with the blocking solution was added at 100 μl/well and then the resultants were shaken at room temperature for 1 hour for reaction. After 3 instances of washing with PBS-T, an HRP-labeled anti-mouse IgG (H+L) antibody (Invitrogen Corporation) as a tertiary antibody diluted 5000-fold with the blocking solution was added at 100 μl per well and then left to stand at room temperature for 1 hour. […]

[2] = target: feline CAPRIN-1, endogenous (serum of cancer-bearing cats) (cat); test: sandwich ELISA: polyclonal anti-SEQ ID NO: 43 immobilised, serum of cancer-bearing cats, monoclonal antibody 1 ug/ml as secondary antibody

absorbance at 450 nm (polypeptide level) [1] | absorbance at 450 nm (polypeptide level) [2] | Binder
≥ 0.3 | – | monoclonal antibody #6 (antibody, V domains shown, mouse hybridoma monoclonal antibody; also called anti-CAPRIN-1 monoclonal antibody #6) VH: LQESGAELARPGASVKLSCKASGYTFTSYWMQWVKQRPGQGLEWIGAIYPGDGDTRYTQKFKGKATLTADKSSSTAYMQLSSLASEDSAVYYCARGEYGNYFAYWGQGTTVTVSS VL: TSDASLGERVTITCKASQDINSYLSWFQQKPGKSPKTLIYRANRLVDGVPSRFSGSGSGQDYSLTISSLEYEDMGIYYCLQYDEFPLTFGGGTKLEIKQ
≥ 0.3 | > 0.3 | monoclonal antibody #2 (antibody, V domains shown, mouse hybridoma monoclonal antibody; also called anti-CAPRIN-1 monoclonal antibody #2) VH: EVQLHQFGAELVKPGASVKISCKASGYTFTDYNMDWVKQSHGKSLEWIGDINPNYDSTSYNQKFKGKATLTVDKSSSTAYMELRSLTSEDTAVYYCARSRSYDYEGFAYWGQGTLVTVSA VL: DIQLTQSPASLSASVGETVTITCRASGNIHNYLAWYQQKQGKSPQLLVYNAKTLADGVPSRFSGSGSGTQYSLKINSLQPEDFGSYYCQHFWSTLTFGGGTKLEIK
≥ 0.3 | – | monoclonal antibody #3 (antibody, V domains shown, mouse hybridoma monoclonal antibody; also called anti-CAPRIN-1 monoclonal antibody #3) VH: EVQLHQFGAELVKPGASVKISCKASGYTFTDYNMDWVKQSHGKSLEWIGDINPNYDSTSYNQKFKGKATLTVDKSSSTAYMELRSLTSEDTAVYYCARSRSYDYEGFAYWGQGTLVTVSA VL: SGDRVSLSCRASQSISNYLHWYQQKSHESPRLLIKYASQSISGIPSRFSGSGSGTDFTLSINSVETEDFGMYFCQQSNSWPYTFGAGTKLEIKQ
